This assay has as its target human PSMA (prostate-specific membrane antigen) expressed on LNCaP cells (human) (UniProt Q04609). Kind of assay: flow cytometry on LNCaP cells, isotype control 10μg/mL, 4℃. (A flow cytometer gives signals particle by particle.)

Sequence of human PSMA (prostate-specific membrane antigen) expressed on LNCaP cells (human) (Q04609 whole entry): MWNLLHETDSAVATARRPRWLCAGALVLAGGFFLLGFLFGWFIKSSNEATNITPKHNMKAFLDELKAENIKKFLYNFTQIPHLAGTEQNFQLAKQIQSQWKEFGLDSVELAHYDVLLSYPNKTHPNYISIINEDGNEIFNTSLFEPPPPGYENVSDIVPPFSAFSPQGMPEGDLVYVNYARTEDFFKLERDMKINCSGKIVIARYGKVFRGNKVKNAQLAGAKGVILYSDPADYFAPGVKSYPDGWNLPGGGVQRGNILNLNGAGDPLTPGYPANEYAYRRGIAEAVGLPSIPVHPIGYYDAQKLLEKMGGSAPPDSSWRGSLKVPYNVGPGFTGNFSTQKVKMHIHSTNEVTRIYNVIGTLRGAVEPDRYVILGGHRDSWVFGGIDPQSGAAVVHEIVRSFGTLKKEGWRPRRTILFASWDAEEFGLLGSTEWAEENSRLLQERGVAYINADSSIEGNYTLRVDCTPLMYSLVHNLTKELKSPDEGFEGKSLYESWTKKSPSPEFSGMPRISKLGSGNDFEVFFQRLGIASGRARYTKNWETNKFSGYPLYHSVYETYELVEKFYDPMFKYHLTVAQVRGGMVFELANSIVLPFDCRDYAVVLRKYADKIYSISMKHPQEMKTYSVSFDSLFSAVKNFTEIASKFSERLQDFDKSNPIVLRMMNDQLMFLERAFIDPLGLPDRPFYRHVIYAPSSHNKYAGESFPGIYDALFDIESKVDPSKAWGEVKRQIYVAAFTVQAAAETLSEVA

In turn, “Mouse IgG Isotype Control (ThermoFisher, cat.No.02-6502) (antibody)” registered a Mean FL of 3440 Mean FL.

Source of the values: patent KR20230078152A.
